Laboratory results taken from PMC6628393.

Biological target: Kv2.1 potassium channel (UniProt Q14721)
UniProt Q14721, sequence (Q14721 whole entry): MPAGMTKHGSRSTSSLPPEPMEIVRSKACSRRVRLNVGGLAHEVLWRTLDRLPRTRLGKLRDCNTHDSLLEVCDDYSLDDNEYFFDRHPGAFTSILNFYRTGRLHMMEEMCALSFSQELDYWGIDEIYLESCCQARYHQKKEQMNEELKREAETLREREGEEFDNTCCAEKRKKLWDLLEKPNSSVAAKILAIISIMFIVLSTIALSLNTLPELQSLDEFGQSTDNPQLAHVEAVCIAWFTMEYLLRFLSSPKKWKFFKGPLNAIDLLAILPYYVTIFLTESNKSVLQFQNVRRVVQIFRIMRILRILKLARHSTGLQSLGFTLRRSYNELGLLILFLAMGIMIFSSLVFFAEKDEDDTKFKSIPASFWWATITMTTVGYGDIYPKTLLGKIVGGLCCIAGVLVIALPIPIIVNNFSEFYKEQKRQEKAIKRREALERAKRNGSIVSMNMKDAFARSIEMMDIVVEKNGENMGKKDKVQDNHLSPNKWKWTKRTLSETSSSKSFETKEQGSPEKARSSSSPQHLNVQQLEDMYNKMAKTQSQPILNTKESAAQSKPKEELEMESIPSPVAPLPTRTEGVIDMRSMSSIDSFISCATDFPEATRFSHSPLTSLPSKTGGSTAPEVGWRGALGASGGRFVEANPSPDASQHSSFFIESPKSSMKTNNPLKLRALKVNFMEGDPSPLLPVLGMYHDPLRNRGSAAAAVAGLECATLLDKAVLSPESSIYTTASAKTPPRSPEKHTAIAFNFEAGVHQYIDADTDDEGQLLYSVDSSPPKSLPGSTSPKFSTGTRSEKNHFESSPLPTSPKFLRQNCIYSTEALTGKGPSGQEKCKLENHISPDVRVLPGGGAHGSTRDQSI

MiDCA1, a phospholipase A2 (PLA2) neurotoxin from Micrurus dumerilii carinicauda coral snake venom (enzyme)
inhibition of Kv2.1-mediated current in Xenopus oocytes by 1 μM MiDCA1 (reversible on washout): 55%
